The test system of series [1] is butanol production pathway. The series can be described thus: Butanol and ethanol production in E. coli MC1.24 (quintuple KO) with bifunctional or monofunctional dehydrogenases (FIG. 5). In kind it is cell-based. To be noted: E. coli MC1.24, FIG. 5. The source says: FIG. 5 illustrates genetically engineered improvement of a butanol production pathway composed of monofunctional aldehyde and alcohol dehydrogenases. The fuel titer of either butanol or ethanol in E. coli cells expressing the biosynthetic pathway shown in FIG. 6A with various particular alcohol and/or aldehyde dehydrogenases is shown. Specifically, E. coli MC1.24 (quintuple KO) was transformed with pT533-phaA.HBD, pBBR2-aceE.F.lpd and 1: pCWO.trc-ter-adhE2, 2: pCDF3-aldh16, 3: pCWori-ter-aldh16.CaADH, or 4: pCWO.trc-ter-aldh16.CaADH as indicated.
. The cultures were grown at 37° C. in a rotary shaker (200 r.p.m.) and induced with IPTG (1.0 mM) at OD600=0.35-0.45. At this time, the growth temperature was reduced to 30° C., and the culture flasks were sealed with Parafilm M (Pechiney Plastic Packaging) to prevent product evaporation for aerobic cultures. Anaerobic cultures were sealed and the headspace was sparged with argon for 5 minutes immediately follow induction. Aerobic cultures were unsealed for 10 to 30 min every 24 h then resealed with Parafilm M, and additional glucose (1% (w/v)) was added 1 day post-induction. Samples were quantified after 3 d of cell culture.
Samples (2 ml) were removed from cell culture and cleared of biomass by centrifugation at 20,817 g for 2 min using an Eppendorf 5417R centrifuge. The supernatant or cleared medium sample was then mixed in a 9:1 ratio with an aqueous solution containing the isobutanol internal standard (10,000 mg l^−1). These samples were then analyzed on a Trace GC Ultra (Thermo Scientific) using an HP-5MS column (0.25 mm×30 m, 0.25 μM film thickness, J & W Scientific). The oven program was as follows: 75° C. for 3 min, ramp to 300° C. at 45° C. min^−1, 300° C. for 1 min. n-Butanol was quantified by flame ionization detection (FID) (flow: 350 ml min^−1 air, 35 ml min^−1 H2 and 30 ml min^−1 helium). Samples containing n-butanol levels below 500 mg 1^−1 were requantified after extraction of the cleared medium sample or standard (500 μl) with toluene (500 μl) containing the isobutanol internal standard (100 mg 1^−1) using a Digital Vortex Mixer (Fisher) for 5 min set at 2,000. The organic layer was then quantified using the same GC parameters with a DSQII single-quadrupole mass spectrometer (Thermo Scientific) using single-ion monitoring (m/z 41 and 56) concurrent with full scan mode (m/z 35-80). Samples were quantified relative to a standard curve of 2, 4, 8, 16, 31, 63, 125, 250, 500 mg 1^−1 n-butanol for MS detection or 125, 250, 500, 1,000, 2,000, 4,000, 8,000 mg 1^−1 n-butanol for FID detection. Standard curves were prepared freshly during each run and normalized for injection volume using the internal isobutanol standard (100 or 1,000 mg 1^−1 for MS and FID, respectively). […]

The test system of series [2] is n-butanol biosynthetic pathway. Kind of series: Butanol and ethanol fuel titer in E. coli DH1 expressing the n-butanol pathway with AdhE2 variants or homologs (FIG. 2, FIG. 3). The series is classed as cell-based. To be noted: E. coli DH1, compared with WT AdhE2. The text has this:
The fuel titer of butanol in E. coli cells expressing the biosynthetic pathway shown in FIG. 6A with various particular AdhE2 variants incorporating amino acid substitutions from the AdhE2 superfamily is shown. The x-axis labels indicate the particular AdhE2 variant being expressed in the E. coli, with wild-type AdhE2 also shown for comparison. In each figure, E. coli DH1 was transformed with pT5T33-phaA.HBD-crt and pCDF3-ter-AdhE2 variant as indicated. FIG. 2A illustrates the butanol production for AdhE2 variants #76930 to #76978. FIG. 2B illustrates the butanol production for AdhE2 variants #76979 to #77025, and also includes WT AdhE2 (GI 499193180). AdhE2 and variants thereof shown in FIG. 2A and FIG. 2B include SEQ ID NOs: 60-154. […]
. […] Samples were quantified after 3 d of cell culture.
Samples (2 ml) were removed from cell culture and cleared of biomass by centrifugation at 20,817 g for 2 min using an Eppendorf 5417R centrifuge. […] These samples were then analyzed on a Trace GC Ultra (Thermo Scientific) using an HP-5MS column (0.25 mm×30 m, 0.25 μM film thickness, J & W Scientific). The oven program was as follows: 75° C. for 3 min, ramp to 300° C. at 45° C. min^−1, 300° C. for 1 min. n-Butanol was quantified by flame ionization detection (FID) (flow: 350 ml min^−1 air, 35 ml min^−1 H2 and 30 ml min^−1 helium). […]

A short description of series [3]: ALDH7 activity toward substrates. To be noted: in words. The series is classed as biochemical.
Substrate in series [4]: CCCC(=O)SCCNC(=O)CCNC(=O)[C@H](O)C(C)(C)COP(=O)(O)OP(=O)(O)OC[C@H]1O[C@@H](n2cnc3c(N)ncnc32)[C@H](O)[C@@H]1OP(=O)(O)O
Kind of series: purified protein, by the assay type. To be noted: other: 100 μM NADH, 100 mM Tris, 1 mM DTT, pH 7.5, 30° C., mean±s.e. (n=3).

Substrate in series [5]: CC(=O)SCCNC(=O)CCNC(=O)[C@H](O)C(C)(C)COP(=O)(O)OP(=O)(O)OC[C@H]1O[C@@H](n2cnc3c(N)ncnc32)[C@H](O)[C@@H]1OP(=O)(O)O
Kind of series: purified protein, by the assay type. To be noted: other: 100 μM NADH, 100 mM Tris, 1 mM DTT, pH 7.5, 30° C., mean±s.e. (n=3).

Series [6] relates to butanediol and hydroxybutanone production pathway. Kind of series: Screen of secondary alcohol dehydrogenases in the aldh7-adh2 pathway in E. coli (FIG. 15-17). In kind it is cell-based. To be noted: in words; pathway with aldh7-adh2 and acetoacetyl-CoA reductase. The text has this:
FIG. 16 illustrates the results of a screen of secondary alcohol dehydrogenases when expressed in the pathway described in FIG. 15. The production titers of 4-hydroxy-2-butanone (hydroxybutanone) and 1,3-butanediol (butanediol) when the illustrated secondary alcohol dehydrogenases are expressed in the pathway illustrated in FIG. 15 are shown. Data are mean±s.d. (n=3).
FIG. 17 illustrates how expression of specific proteins in the pathway described in FIG. 15 can control butanediol:hydroxybutanone ratios through pathway design. The production titers of 4-hydroxy-2-butanone (hydroxybutanone) and 1,3-butanediol (butanediol) when the illustrated proteins are expressed in the pathway illustrated in FIG. 15 are shown. Data are mean±s.d. (n=3).
Unless otherwise described, applicable materials and methods as described in this Example are analogous to those described in Example 1.
At least four SADHs enabled butanediol production of 2 g/L with hydroxybutanone production limited to 250 mg/L or less (FIG. 16). This pathway design appears preferable to enforcing specificity through an ADH that will not accept acetoacetaldehyde; acetoacetaldehyde need not be a dead end product and can still be channeled to butanediol production.

B1: ALDH16: monofunctional aldehyde dehydrogenase specific for C4 substrates (protein, listed as Clostridium beijerinckii)
chain: MNKDTLIPTTKDLKVKTNGENINLKNYKDNSSCFGVFENVENAISSAVHAQKILSLHYTKEQREKIITEIRKAALQNKEVLATMILEETHMGRYEDKILKHELVAKYTPGTEDLTTTAWSGDNGLTVVEMSPYGVIGAITPSTNPTETVICNSIGMIAAGNAVVFNGHPCAKKCVAFAVEMINKAIISCGGPENLVTTIKNPTMESLDAIIKHPSIKLLCGTGGPGMVKTLLNSGKKAIGAGAGNPPVIVDDTADIEKAGRSIIEGCSFDNNLPCIAEKEVFVFENVADDLISNMLKNNAVIINEDQVSKLIDLVLQKNNETQEYFINKKWVGKDAKLFLDEIDVESPSNVKCIICEVNANHPFVMTELMMPILPIVRVKDIDEAIKYAKIAEQNRKHSAYIYSKNIDNLNRFEREIDTTIFVKNAKSFAGVGYEAEGFTTFTIAGSTGEGITSARNFTRQRRCVLAG
Regarding B1, in series [1], the butanol production was determined as 1 g/L and the ethanol production was determined as 0.5 g/L. Further, the “butanol:ethanol ratio” value in series [2] was “favorable”.

B2: ALDH7: monofunctional aldehyde dehydrogenase (protein, listed as Clostridium botulinum)
chain: MERNLSVLSQTNDLKITKRTEGDKSNNKESYLGVFKKVENAITKAIYAQKKLSLYYTKEDRERIIKSIRKATLENKEILAKMIVDETHMGRYEDKILKHELVAKYTPGTEDLITTAWSGDQGLTLVEMSPYGVIGAITPSTNPTETVICNSIGMIAAGDSVVFNGHPGAKKCVAFAVDMINKAVIREGGPENLVTTVENPTMESLNVIMKHPYIKLLCGTGGPGLIKTLLNSGKKAIGAGAGNPPVIVDDSADIDKAAKNIIEGCSFDNNLPCIAEKEVFVFENVANDLIQNMIKNNAVLINENQVSKLLDLVLLERKDETLEYAINKKWVGKDAKLFLDKIGIKASDNVRCIICEVDANHPFVMTELMMPILPIVRVKDVDEAIECAKTAEQRKRHSAYMYSKNIDNLNRFEKEIDTTIFVKNAKSFAGVGFGAEGFTTFTIAGPTGEGITSARNFTRQRRCVLAG
For B2, the “activity toward substrates including acetoacetyl-CoA and 3-hydroxybutyryl-CoA” value in series [3] is listed as “displays activity”.

B3: AdhE2-ALDH (aldehyde dehydrogenase domain of bifunctional AdhE2, wild type, GI 499193180, SEQ ID NO: 41) (Clostridium acetobutylicum) (protein)
chain: MKVTNQKELKQKLNELREAQKKFATYTQEQVDKIFKQCAIAAAKERINLAKLAVEETGIGLVEDKIIKNHFAAEYIYNKYKNEKTCGIIDHDDSLGITKVAEPIGIVAAIVPTTNPTSTAIFKSLISLKTRNAIFFSPHPRAKKSTIAAAKLILDAAVKAGAPKNIIGWIDEPSIELSQDLMSEADIILATGGPSMVKAAYSSGKPAIGVGAGNTPAIIDESADIDMAVSSIILSKTYDNGVICASEQSILVMNSIYEKVKEEFVKRGSYILNQNEIAKIKETMFKNGAINADIVGKSAYIIAKMAGIEVPQTTKILIGEVQSVEKSELFSHEKLSPVLAMYKVKDFDEALKKAQRLIELGGSGHTSSLYIDSQNNKDKVKEFGLAMKTSRTFINMPSSQGASGDLYNFAIAPSFTLGCGTWGGNSVSQNVEPKHLLNIKSVAERRENMLWFKVPQKIYFKYGCLRFALKELKDMNKKRAFIVTDKDLFKLGYVNKITKVLDEIDIKYSIFTDIKSDPTIDSVKKGAKEMLNFEPDTIISIGGGSPMDAAKVMHLLYEYPEAEIENLAINFMDIRKRICNFPKLGTKAISVAIPTTAGTGSEATPFAVITNDETGMKYPLTSYELTPNMAIIDTELMLNMPRKLTAATGIDALVHAIEAYVSVMATDYTDELALRAIKMIFKYLPRAYKNGTNDIEAREKMAHASNIAGMAFANAFLGVCHSMAHKLGAMHHVPHGIACAVLIEEVIKYNATDCPTKQTAFPQYKSPNAKRKYAEIAEYLNLKGTSDTEKVTALIEAISKLKIDLSIPQNISAAGINKKDFYNTLDKMSELAFDDQCTTANPRYPLISELKDIYIKSF
As for B3, in series [4], the Km turned out to be 10 ± 1 µM. For the same molecule, in series [5], the Michaelis constant (Km) turned out to be 100 ± 10 µM, the kcat is 1.3 s⁻¹ and the specificity constant (kcat/Km) was 13000 M⁻¹ s⁻¹.

B4: SADH1: secondary alcohol dehydrogenase from Pichia kudriavzevii (protein, listed as Pichia kudriavzevii)
chain: MFMKGLTYLKPGIVSWQSIPKPVLKKPTDVIGKVVTTTICGSDLHILKGDVPETTALAATTGHGVVLGHEAIIEIESVGDAVKNFSKGDVCIVSCITSCGKCYYCKRNLQSHCTGHMEGTSGWVFGHEIDGTQAEYVRVPCADYGLYKVPEGVAYEKLLMLSDAIPTSYEIGILNGEVKEGDSVAVVGLGPVGLSALLTAINKKPKQLIAIDMDENRLDLAKQLGATHIINSTNMPNEEVAKKVQEISKDLEPGRESGVDVAIECVGVPPTFELCEDLIASGGTIANVGVHGAKVDLKLQELWIKNCKITTGLVSTYSIPDLLNQVADGSLDPSPIITHHFKFDEFEKAYQVFKDAKNTKAMKIILTP
As for B4, the butanediol titer result in series [6] is on record as “maximum butanediol titer”.

In general, Km refers to the concentration of substrate that gives half-maximal velocity. Broadly, the kcat is the maximal rate divided by the concentration of active sites. As a reminder, the kcat/Km is the second-order rate constant that governs catalysis at low substrate concentration.
